Measurements published in US20260193356A1 (BIOCYTOGEN PHARMACEUTICALS BEIJING, published 2026).

How the values were obtained:
[1] = target: T1, human PDL1 (hPDL1) expressed on CHO-S cells (CHO-S-hPDL1) (human, UniProt Q9NZQ7 19-290); experiment: flow cytometry on CHO-S-hPDL1 cells; antibody 0.1 µg/mL
Protocol: (§1) Then, after one wash with PBS, the cells were incubated with the secondary antibody anti-hIgG-Fc-Alex Flour 647 (RL1-H) (Jackson ImmunoResearch Laboratories, Inc., 109-606-170) at 4° C. for 15 minutes before flow cytometry analysis.

[2] = target: T2, His-tagged human B7-H2 protein (hB7-H2-his, ACROBiosystems Inc., Cat #: B72-H5221) (human, UniProt O75144 19-258); experiment: SPR Biacore 8K, antibody captured on Protein A chip, His-tagged antigen as analyte
T2 construct: Bought protein; not shown: His tag
T2 sequence (looked up): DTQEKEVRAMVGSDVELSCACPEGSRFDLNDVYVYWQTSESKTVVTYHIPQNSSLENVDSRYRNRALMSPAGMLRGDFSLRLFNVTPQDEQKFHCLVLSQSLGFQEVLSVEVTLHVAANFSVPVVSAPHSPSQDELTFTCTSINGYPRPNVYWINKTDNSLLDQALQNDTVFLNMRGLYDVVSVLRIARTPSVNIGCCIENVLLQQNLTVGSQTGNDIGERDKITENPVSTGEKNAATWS
Protocol: (§2) The His-tagged antigen protein at a concentration of 200 nM was then injected at 30 μL/min for 180 seconds. Dissociation was monitored for 400 seconds. The chip was regenerated after the last injection of each titration with Glycine (pH 2.0, 30 μL/min for 30 seconds).

[3] = target: T3, His-tagged human PDL2 protein (hPDL2-his, ACROBiosystems Inc., Cat #: PD2-H5220) (human, UniProt Q9BQ51 20-219); experiment: as above
T3 construct: Bought protein; not shown: His tag
T3 sequence (looked up): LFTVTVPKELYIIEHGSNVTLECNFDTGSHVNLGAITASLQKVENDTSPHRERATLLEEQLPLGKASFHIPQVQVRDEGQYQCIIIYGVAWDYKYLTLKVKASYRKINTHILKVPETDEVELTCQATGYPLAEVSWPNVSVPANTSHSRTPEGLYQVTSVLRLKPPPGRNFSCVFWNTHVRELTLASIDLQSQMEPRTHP
Protocol: as §2

[4] = target: T4, His-tagged human B7-1 protein (hB7-1-his, Kactus, Cat #: B71-HM480) (human, UniProt P33681 35-242); experiment: as above
T4 construct: Bought protein; not shown: His tag
T4 sequence (looked up): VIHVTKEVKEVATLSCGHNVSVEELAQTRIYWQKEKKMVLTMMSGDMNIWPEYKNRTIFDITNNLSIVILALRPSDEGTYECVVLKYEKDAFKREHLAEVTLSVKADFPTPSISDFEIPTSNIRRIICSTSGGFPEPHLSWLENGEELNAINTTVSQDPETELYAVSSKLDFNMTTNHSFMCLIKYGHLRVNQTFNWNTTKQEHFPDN
Protocol: as §2

[5] = target: T5, His-tagged human B7-H3 protein (hB7-H3-his, ACROBiosystems Inc., Cat #: B73-H52E2) (human, UniProt Q5ZPR3-2 29-245); experiment: as above
T5 construct: Bought protein; not shown: His tag
T5 sequence (looked up): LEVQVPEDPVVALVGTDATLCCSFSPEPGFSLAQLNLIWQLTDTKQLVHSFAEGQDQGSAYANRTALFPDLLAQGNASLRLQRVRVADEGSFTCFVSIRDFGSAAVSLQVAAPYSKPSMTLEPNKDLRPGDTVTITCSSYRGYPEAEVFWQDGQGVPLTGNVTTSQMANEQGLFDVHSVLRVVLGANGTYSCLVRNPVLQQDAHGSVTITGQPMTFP
Protocol: as §2

[6] = target: T6, monkey (Macaca fascicularis) PDL1 (fasPDL1) expressed on CHO-S cells (CHO-S-fasPDL1) (monkey (Macaca fascicularis), UniProt Q9NZQ7 19-290 (human entry)); experiment: flow cytometry on CHO-S-fasPDL1 cells; antibody 1 µg/mL
T6 sequence (Q9NZQ7 other isoform, or with tags, fused parts or gaps limits assumed): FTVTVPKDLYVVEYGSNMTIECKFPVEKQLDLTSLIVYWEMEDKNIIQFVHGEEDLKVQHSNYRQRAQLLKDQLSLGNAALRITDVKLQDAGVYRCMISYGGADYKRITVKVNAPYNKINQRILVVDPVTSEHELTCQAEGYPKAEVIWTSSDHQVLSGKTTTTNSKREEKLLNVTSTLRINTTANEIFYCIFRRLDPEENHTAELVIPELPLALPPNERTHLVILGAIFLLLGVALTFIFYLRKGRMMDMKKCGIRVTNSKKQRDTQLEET
Protocol: as §1

[7] = target: T7, mouse (Mus musculu) PDL1 (mPDL1) expressed on CHO-S cells (CHO-S-mPDL1) (mouse, UniProt Q9EP73 19-290); experiment: flow cytometry on CHO-S-mPDL1 cells; antibody 0.1 µg/mL
T7 sequence (Q9EP73 19-290 limits assumed): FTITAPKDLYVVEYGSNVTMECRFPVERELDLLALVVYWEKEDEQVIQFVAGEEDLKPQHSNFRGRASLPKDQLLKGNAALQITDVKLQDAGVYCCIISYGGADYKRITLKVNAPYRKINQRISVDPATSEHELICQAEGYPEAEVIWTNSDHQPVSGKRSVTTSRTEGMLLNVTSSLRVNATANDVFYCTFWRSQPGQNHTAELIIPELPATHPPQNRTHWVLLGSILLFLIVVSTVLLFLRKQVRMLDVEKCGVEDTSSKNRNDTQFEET
Protocol: as §1

[8] = target: T8, His-tagged Macaca fascicularis PDL1 protein (fasPDL1-his, ACROBiosystems Inc., Cat #: PD1-C52H4) (Macaca fascicularis, UniProt Q9NZQ7 19-238 (human entry)); experiment: SPR Biacore 8K, antibody captured on Protein A chip, His-tagged antigen as analyte, 1:1 model
T8 construct: Bought protein; also called monkey PDL1; not shown: His tag
T8 sequence (Q9NZQ7 other isoform, or with tags, fused parts or gaps limits assumed): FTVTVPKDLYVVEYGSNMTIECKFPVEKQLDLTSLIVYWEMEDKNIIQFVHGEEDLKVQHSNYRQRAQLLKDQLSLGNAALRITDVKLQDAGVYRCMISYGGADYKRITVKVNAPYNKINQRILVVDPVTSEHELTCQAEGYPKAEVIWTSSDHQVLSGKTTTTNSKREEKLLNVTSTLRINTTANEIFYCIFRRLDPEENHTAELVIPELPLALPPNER
Protocol: (§3) Dissociation was monitored for 400 seconds. The chip was regenerated after the last injection of each titration with Glycine (pH 2.0, 30 μL/min for 30 seconds).

[9] = target: T9, His-tagged mouse PDL1 protein (mPDL1-his, ACROBiosystems Inc., Cat #: PD1-M5220) (mouse, UniProt Q9EP73 19-238); experiment: as above
T9 construct: Bought protein; not shown: His tag
T9 sequence (Q9EP73 19-238 limits assumed): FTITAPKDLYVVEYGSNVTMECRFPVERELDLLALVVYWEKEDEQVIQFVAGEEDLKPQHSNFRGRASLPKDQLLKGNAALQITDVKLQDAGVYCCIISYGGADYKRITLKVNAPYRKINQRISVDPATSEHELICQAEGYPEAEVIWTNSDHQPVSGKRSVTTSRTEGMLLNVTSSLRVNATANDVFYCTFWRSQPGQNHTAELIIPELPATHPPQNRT
Protocol: as §3

[10] = target: T10, His-tagged human PDL1 protein (hPDL1-his, ACROBiosystems Inc., Cat #: PD1-H5229) (human, UniProt Q9NZQ7 19-238); experiment: as above
T10 construct: Bought protein; not shown: His tag
T10 sequence (Q9NZQ7 19-238 limits assumed): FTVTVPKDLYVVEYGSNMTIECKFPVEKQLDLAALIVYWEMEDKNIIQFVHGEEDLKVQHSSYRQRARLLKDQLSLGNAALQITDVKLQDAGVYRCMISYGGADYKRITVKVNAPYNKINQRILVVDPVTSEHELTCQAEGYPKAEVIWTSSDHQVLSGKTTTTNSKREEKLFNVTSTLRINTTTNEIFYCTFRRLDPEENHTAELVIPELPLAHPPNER
Protocol: as §3

[11] = target: human PDL1 on helper cells CHO-aAPC-hPDL1 (Promega, Cat #: J1081) (human, UniProt Q9NZQ7 19-290); experiment: cell-based or functional assay
Chain of human PDL1 on helper cells CHO-aAPC-hPDL1 (Promega, Cat #: J1081) (Q9NZQ7 19-290 limits assumed): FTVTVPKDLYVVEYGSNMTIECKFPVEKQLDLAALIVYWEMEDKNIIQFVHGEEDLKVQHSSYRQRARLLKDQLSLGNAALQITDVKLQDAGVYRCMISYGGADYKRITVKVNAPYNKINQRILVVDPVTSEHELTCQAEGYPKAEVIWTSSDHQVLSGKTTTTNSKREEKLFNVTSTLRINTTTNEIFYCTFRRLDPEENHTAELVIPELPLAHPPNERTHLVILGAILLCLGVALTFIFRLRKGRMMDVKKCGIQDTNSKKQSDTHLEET

[12] = target: T7, mouse (Mus musculu) PDL1 (mPDL1) …; experiment: flow cytometry on CHO-S-mPDL1 cells; antibody 1 µg/mL
Protocol: as §1

[13] = target: T6, monkey (Macaca fascicularis) PDL1 …; experiment: flow cytometry on CHO-S-fasPDL1 cells; antibody 0.1 µg/mL
Protocol: as §1

[14] = target: T1, human PDL1 (hPDL1) expressed on CHO-S …; experiment: flow cytometry on CHO-S-hPDL1 cells; antibody 1 µg/mL
Protocol: as §1

T1 sequence (Q9NZQ7 19-290 limits assumed): as above

| Binder | Percentage of Positive Cells (%) [1] [%] | binding result [2] | binding result [3] | binding result [4] | binding result [5] | Percentage of Positive Cells (%) [6] [%] | Percentage of Positive Cells (%) [7] [%] | Kd [8] [nM] | koff [8] [s⁻¹] | kon [8] [M⁻¹ s⁻¹] | Kd [9] [nM] | koff [9] [s⁻¹] | kon [9] [M⁻¹ s⁻¹] | Kd [10] [nM] | koff [10] [s⁻¹] | kon [10] [M⁻¹ s⁻¹] | IC50 (µg/mL), Blockade of the binding of PDL1 and PD-1 (luciferase, CHO-aAPC-hPDL1 + Jurkat-Luc-hPD1 cells) [11] [µg/mL] | Percentage of Positive Cells (%) [12] [%] | Percentage of Positive Cells (%) [13] [%] | Percentage of Positive Cells (%) [14] [%] |
| --- | --- | --- | --- | --- | --- | --- | --- | --- | --- | --- | --- | --- | --- | --- | --- | --- | --- | --- | --- | --- |
| B21A06-N297A (antibody, human IgG1, V domains shown) VH: QVQLQESGGDVVQPGRSLRLSCAASGFTFNNYGMHWVRQAPSKGLEWVAFIWYDGSNKYYGDSVKGRFTISRDNSKNTLYLQMNSLRAEDTALYYCARGDNWNSDAFDIWGPGTMVTVSS VL: EIVMTQSPLSLPVTLGQPASISCRSSQSLVYTNGNTYLNWFQQRPGQSPRRLIYKVSSRDSGVPDRFSGSGSGTDFTLKISRVAAEDVGLYYCMQGTHWPLTFGGGTKVEIK | 65.8 | no binding (tested: 200 nM) | no binding (tested: 200 nM) | no binding (tested: 200 nM) | no binding (tested: 200 nM) | 70.2 | 65.2 | 5.77 | 0.00156 | 271000 | 8.04 | 0.00187 | 232000 | 8.65 | 0.00167 | 193000 | 1.14 | 75.2 | 65 | 83.2 |
| B20B02-N297A (antibody, human IgG1, V domains shown) VH: QVQLQQSGGGVVQPGRSLRLSCAASGFTFSTYGMHWVRQAPGKGLEWVAALSFDGGNIYYGDSVKGRFTISRDNSKNTLYLQMNSLRAEDTALYYCAKARLPYSYDAVDYWGQGTLVTVSS VL: EIVMTQSPATLSVSPGERATLSCRASQSVSSNLAWYQQKPGQAPRLLIYDTSTRAIGIPARFSGSGSGTEFTLTISSLQSEDFAIYYCHQYNFWPPITLGQGTRLEIK | 69 | no binding (tested: 200 nM) | no binding (tested: 200 nM) | no binding (tested: 200 nM) | no binding (tested: 200 nM) | 79.8 | 70.6 | 0.672 | 0.000146 | 217000 | 1.28 | 0.000168 | 131000 | 1.16 | 0.000184 | 159000 | 1.13 | 87.3 | 65.9 | 89.3 |
| B22E02-N297A (antibody, human IgG1, V domains shown, Human IgG1 with N297A (EU numbering) in the Fc) VH: QVQLVQSGGGLVQPGRSLRLSCRASGFTFDGYSMNWVRQAPGKGLEWVGFIRSKGYGGTSESAASVKGRFTISRDDSKSIAYLQMNSLKTEDTAVYYCTRTRNWNDEGYFDYWGLGTLVTVSS VL: DIQMTQSPSSLSASVGDRVTITCQASQDINKYLNWYQQKPGKAPKLLIYDASNSETGVPSRFSGSGSGTDFTFTISSLQPEDISTYYCQQYDILPITFGQGTRLEIK | 72.2 | no binding (tested: 200 nM) | no binding (tested: 200 nM) | no binding (tested: 200 nM) | no binding (tested: 200 nM) | 74.4 | 66.1 | 0.765 | 0.000331 | 432000 | 17.6 | 0.00152 | 86200 | 1.29 | 0.000411 | 318000 | 0.745 | 77.1 | 66.9 | 87.1 |
| B20A09-N297A (antibody, V domains shown) VH: QVQLQQSGPGLVKPSQTLSLTCAISRDGVSNISGAWNWIRQSPSRGLEWLGRTYYRAMWYKDYALSVKSRITINPDTSKNQFSLQLNSVTPEDTAVYYCAREEYSRGWGAFDIWGQGTMVTVSS VL: not shown | 69.9 | no binding (tested: 200 nM) | no binding (tested: 200 nM) | no binding (tested: 200 nM) | no binding (tested: 200 nM) | 72 | 67.8 | 2.95 | 0.000612 | 207000 | 41.5 | 0.00955 | 230000 | 4.6 | 0.000721 | 157000 | 0.789 | 79 | 64.2 | 83.1 |
